For 1 molecule, Kd results are on record in patent publication US11525133 (dated 2022).

The assay addresses p53-TPR2. Kind of assay: ITC. For orientation: In ITC the heat of successive injections is recorded.

B1: Mdm2 N-terminal domain (other)
chain: SQIPASEQETLVRPKPLLLKLLKSVGAQKDTYTMKEVLFYLGQYIMTKRLYDEKQQHIVYCSNDLLGDLFGVPSFSVKEHRKIYTMIYRNLVVVNQQESSDSGTSVSEN
The term Kd denotes the concentration at which binding is half-saturated. A higher Kd goes with weaker binding. Take B1: binding was put at a Kd of 54 nM.
